Publication PMC7327521 (Journal of Molecular Biology, 2020)
Square brackets hold non-standard residues; d marks the D form. Ends that are not written are not given here. pY = N[C@@H](Cc1ccc(OP(=O)(O)O)cc1)C(=O)O

Tests used:
Test in all cases: fluorescence polarisation
[1] = target: T1, Spt6 from S. cerevisiae lacking the first unstructured 297 residues (Spt6ΔN) (S. cerevisiae, UniProt P23615 298-1451)
T1 sequence (looked up): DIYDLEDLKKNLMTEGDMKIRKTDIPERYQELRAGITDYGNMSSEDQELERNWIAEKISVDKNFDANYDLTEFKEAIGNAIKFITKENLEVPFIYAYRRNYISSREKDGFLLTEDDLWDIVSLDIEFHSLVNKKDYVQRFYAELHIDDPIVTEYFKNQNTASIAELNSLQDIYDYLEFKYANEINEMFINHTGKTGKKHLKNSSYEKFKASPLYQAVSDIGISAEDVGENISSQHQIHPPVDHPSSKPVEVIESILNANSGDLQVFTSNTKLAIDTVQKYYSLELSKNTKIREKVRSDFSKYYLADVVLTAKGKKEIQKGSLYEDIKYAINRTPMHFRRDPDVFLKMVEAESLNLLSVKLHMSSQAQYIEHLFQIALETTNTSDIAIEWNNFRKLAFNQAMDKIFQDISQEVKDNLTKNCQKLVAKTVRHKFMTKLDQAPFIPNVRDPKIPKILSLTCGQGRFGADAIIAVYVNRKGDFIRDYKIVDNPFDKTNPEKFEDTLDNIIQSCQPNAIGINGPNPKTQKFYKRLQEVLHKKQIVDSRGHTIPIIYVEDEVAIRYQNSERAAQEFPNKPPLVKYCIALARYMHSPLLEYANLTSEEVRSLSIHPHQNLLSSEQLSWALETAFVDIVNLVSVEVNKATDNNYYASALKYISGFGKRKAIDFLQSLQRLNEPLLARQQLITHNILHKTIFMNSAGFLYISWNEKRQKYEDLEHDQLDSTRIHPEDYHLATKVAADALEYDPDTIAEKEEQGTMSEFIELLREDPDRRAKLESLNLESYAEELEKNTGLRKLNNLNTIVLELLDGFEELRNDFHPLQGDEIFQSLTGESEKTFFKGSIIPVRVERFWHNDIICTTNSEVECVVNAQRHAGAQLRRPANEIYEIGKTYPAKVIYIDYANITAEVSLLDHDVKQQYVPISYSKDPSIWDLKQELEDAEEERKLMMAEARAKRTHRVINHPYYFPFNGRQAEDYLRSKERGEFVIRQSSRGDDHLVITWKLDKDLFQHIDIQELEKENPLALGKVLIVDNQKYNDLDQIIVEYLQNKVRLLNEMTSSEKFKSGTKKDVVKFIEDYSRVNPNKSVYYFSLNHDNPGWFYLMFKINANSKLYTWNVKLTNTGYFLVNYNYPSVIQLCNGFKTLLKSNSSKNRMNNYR

[2] = target: T2, Spt6-tSH2 R1281A/S1283A (C. glabrata, UniProt Q6FLB1 1250-1444, R1281A | S1283A)
T2 sequence (looked up): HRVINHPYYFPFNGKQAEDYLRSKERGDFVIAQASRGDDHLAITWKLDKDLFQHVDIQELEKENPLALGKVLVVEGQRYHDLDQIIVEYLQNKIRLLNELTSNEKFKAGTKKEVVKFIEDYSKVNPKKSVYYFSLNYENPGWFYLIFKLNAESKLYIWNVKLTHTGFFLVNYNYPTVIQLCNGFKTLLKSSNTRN

[3] = target: T3, Spt6-tSH2 R1281A/S1284A (C. glabrata, UniProt Q6FLB1 1250-1444, R1281A | S1284A)
T3 sequence (looked up): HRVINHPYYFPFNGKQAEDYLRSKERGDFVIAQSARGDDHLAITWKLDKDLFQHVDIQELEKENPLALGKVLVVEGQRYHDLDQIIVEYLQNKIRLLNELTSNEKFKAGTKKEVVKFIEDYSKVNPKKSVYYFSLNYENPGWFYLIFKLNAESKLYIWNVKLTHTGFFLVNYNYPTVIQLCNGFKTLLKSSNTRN

[4] = target: T4, Spt6-tSH2 E1324A (C. glabrata, UniProt Q6FLB1 1250-1444, E1324A)
T4 sequence (looked up): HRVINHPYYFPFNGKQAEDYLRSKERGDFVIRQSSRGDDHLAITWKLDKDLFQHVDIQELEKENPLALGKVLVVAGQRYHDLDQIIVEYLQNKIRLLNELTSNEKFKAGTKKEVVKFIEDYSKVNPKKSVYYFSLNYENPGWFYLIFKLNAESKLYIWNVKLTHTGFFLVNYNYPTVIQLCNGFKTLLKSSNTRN

[5] = target: T5, Spt6-tSH2 R1285A (C. glabrata, UniProt Q6FLB1 1250-1444, R1285A)
T5 sequence (looked up): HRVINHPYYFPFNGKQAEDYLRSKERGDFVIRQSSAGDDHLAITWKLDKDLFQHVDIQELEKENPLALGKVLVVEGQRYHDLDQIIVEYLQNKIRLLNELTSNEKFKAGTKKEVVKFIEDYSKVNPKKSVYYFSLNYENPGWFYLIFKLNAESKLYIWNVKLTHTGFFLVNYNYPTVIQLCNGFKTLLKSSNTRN

[6] = target: T6, Spt6-tSH2 R1281A/S1283A/R1285A (C. glabrata, UniProt Q6FLB1 1250-1444, R1281A | S1283A | R1285A)
T6 sequence (looked up): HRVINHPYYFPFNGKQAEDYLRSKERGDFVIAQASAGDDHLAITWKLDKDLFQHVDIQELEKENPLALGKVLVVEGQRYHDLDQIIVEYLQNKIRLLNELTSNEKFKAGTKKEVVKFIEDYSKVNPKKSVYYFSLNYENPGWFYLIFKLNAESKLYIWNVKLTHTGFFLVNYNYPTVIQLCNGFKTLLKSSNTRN

{5,6‑FAM}-PS[pY]SPTSPS[pY]SPTSPS [(pY1-CTD)2, FAM-labelled tyrosine-phosphorylated CTD diheptad]
Kd [1]: 4 ± 0.5 µM
Kd [2]: 35.5 µM
Kd [3]: 11.4 µM
Kd [4]: 1.4 µM
Kd [5]: 12 µM
Kd [6]: 16.5 µM
